Numbering of substitutions follows the chain as printed.
B1: AS170036 VL1VH1-56Y98Q108S (scFv)
scFv: QSALTQPRSVSGSPGQSVTISCAGTSSDVGSENYVSWYQQHPGKAPKLMIYQVNKRASGVPDRFSGSKSGNTASLTISGLQAEDEADYYCASYRSSDQNIVFGGGTKLTVLGGGGSGGGGSGGGGSEVQLVESGGGLVQPGGSLRLSCAASGFTFSSYAMSWVRQAPGKGLEWVSTINSGTYSPYYADSVKGRFTISRDNSKNTLYLQMNSLRAEDTAVYYCAKNFFDGSWFLSPPAMDYWGQGTLVTVSSHHHHHH
B2: AS170036 VL1VH1-57K108S (scFv)
scFv: B1 scFv with Q98H, Y182G, S183K
B3: AS170036 VL1VH1-98I108A (scFv)
scFv: B1 scFv with Q98I, Y182G, S234A
B4: AS170036 VL1VH1-57M98Q (scFv)
scFv: B1 scFv with Y182G, S183M, S234G
B5: AS170036 VL1VH1-56N98I (scFv)
scFv: B1 scFv with Q98I, Y182N, S234G
B6: AS170036 VL1VH1 (scFv)
scFv: B1 scFv with Q98H, Y182G, S234G
B7: AS170036 VL1VH1-56Y98I108S (scFv)
scFv: B1 scFv with Q98I
B8: AS170036 VL1VH1-56N108A (scFv)
scFv: B1 scFv with Q98H, Y182N, S234A
B9: AS179732 scFv-mIgG2aFc (Fc fusion)
chain: NFMLTQPPSMSGSPRQSVTISCTGSSSNIGGNYVNWYQHLPGTAPKLLIYDNSNRASGVPERFSGSKSGSSASLTITGLQAEDEGDYYCASWDDSLSGAVFGGGTHLTVLGGGGSGGGGSGGGGSEVQLVESGGGLVQPGGSLRLSCAASGFTFLNYAMSWVRQAPGKGLEWVSSNSGAGSTYYSDSVKGRFTISRDYAKNVVYLQLNSLKTEDTGMYYCAKGTNVGSWSSLHYWGQGTQVTVSS
B10: AS179723 scFv-mIgG2aFc (Fc fusion)
chain: B9 chain with N1Q, F2A, M3G, S27N, S53K, A56P, R62Q, F63I, G98A, A99V
B11: AS170036 scFv-mIgG2aFc (Fc fusion)
chain: QLVLTQPSSVSGTPGQTVTISCAGTSSDVGSENYVSWYRQLPGTAPKLLIYQVNKRASGIADRFSGSKSGNTASMTISGLQSADEADYYCASYRSSDHNIVFGGGTHLTVLGGGGSGGGGSGGGGSAVQLVESGGGLVQPGGSLRLSCTASGFTFSSYAMSWVRQAPGKGLEWVSTINSGTGSPYYADSVKGRFTISRDNAKNTLYLQLNSLKTEDTAMYYCAKNFFDGSWFLGPPAMDYWGKGTLVTISS
B12: AS179732 (Fc fusion)
chain: B9 chain
B13: AS170036 VL1VH1 (Fc fusion)
chain: QSALTQPRSVSGSPGQSVTISCAGTSSDVGSENYVSWYQQHPGKAPKLMIYQVNKRASGVPDRFSGSKSGNTASLTISGLQAEDEADYYCASYRSSDHNIVFGGGTKLTVLGGGGSGGGGSGGGGSEVQLVESGGGLVQPGGSLRLSCAASGFTFSSYAMSWVRQAPGKGLEWVSTINSGTGSPYYADSVKGRFTISRDNSKNTLYLQMNSLRAEDTAVYYCAKNFFDGSWFLGPPAMDYWGQGTLVTVSS
B14: AS167821 sdAb-mIgG2aFc (Fc fusion)
chain: QVRLVESGGGSVQAGGSLRLSCAASGRTYSTYCMGWFRQAPGKEREGVATIYIGSGRTYYVDSVKGRFTISQDNAKNTLYLQMNNLKPEDTAMYYCTADVDPYESSWSRGLGYWGQGTQVTVSS
B15: AS148691 scFv-mIgG2aFc (Fc fusion)
chain: DIQMTQSPSSLSASVGDRVTITCRASQSVSSAVAWYQQKPGKAPKLLIYSASSLYSGVPSRFSGSRSGTDFTLTISSLQPEDFATYYCQQYYGAYLITFGQGTKVEIKGGGGSGGGGSGGGGSEVQLVESGGGLVQPGGSLRLSCAASGFNLYYSSIHWVRQAPGKGLEWVASIYSSYGSTSYADSVKGRFTISADTSKNTAYLQMNSLRAEDTAVYYCARVGPGYYGIDYWGQGTLVTVSS
B16: AS190259 scFv-mIgG2aFc (Fc fusion)
chain: QSVVTQPSAVSVSLEETATITCQGGGYYVNWYQQKPGQAPVLVIYLNTNRPSGIPERFSASKSGGTATLTINGAQAEDEAAYYCQSADSSGNSAVFGGGTHLTVLGGGGSGGGGSGGGGSQVQLVQSGGGLVQPGGSLRLSCAASGFTFSSYAMSWVRQAPGKGLEWVSAINSGGGSTYYADSVKGRFTISRDNAKNTLYLQLNSLKTEDTAMYYCAKAASGYGGSWWGDATLDAWGQGTLVTVSS
B17: AS167830 sdAb-mIgG2aFc (Fc fusion)
chain: QVKLVESGGGSVQAGGSLRLSCAASRSSEYMNRRFCMGWFRQASGKEREGVAVVYIGGGRTYYADSVKGRFTISQDNAKNTLYLQMNNLKPEDTAMYYCTADVDPYESSWSRDLGYWGQGTQVTVSS

The binders below were run against AFP158/HLA-A*02:01 complex (assay: SPR).
A Kd of 7 nM was found for B1 in this work. A Kd of 35 nM was found for B2 in this work. A Kd of 22 nM was found for B3 in this work. A Kd of 46 nM was found for B4 in this work. A Kd of 41 nM was found for B5 in this work. A Kd of 710 nM was found for B6 in this work. A Kd of 2.4 nM was found for B7 in this work. A Kd of 27 nM was found for B8 in this work.

Biological target: AFP158/HLA-A*02:01 complex
Test: SPR
Remark: another data set of the same source
A Kd of 39.8 nM was found for B9 in this work. A Kd of 80.4 nM was found for B10 in this work. A Kd of 387 nM was found for B11 in this work.

Each binder was assayed against A*02:11 (assay: SPR).
A Kd of 656 nM was found for B12 in this work.

Each binder was assayed against A*02:03 (assay: SPR).
A Kd of 2140 nM was found for B12 in this work.

These binders were tested against A*02:02 (assay: SPR).
A Kd of 19000 nM was found for B12 in this work.

What follows are binders tested against A*02:05 (assay: SPR).
A Kd of 26200 nM was found for B12 in this work.

These binders were tested against A*02:06 (assay: SPR).
A Kd of 191 nM was found for B12 in this work. A Kd of 2770 nM was found for B13 in this work.

Biological target: A*02:11
Test: SPR
Remark: another data set of the same source
A Kd of 290 nM was found for B1 in this work. A Kd of 370 nM was found for B2 in this work. A Kd of 360 nM was found for B4 in this work. A Kd of 220 nM was found for B6 in this work. A Kd of 160 nM was found for B7 in this work.

Biological target: A*02:03
Test: SPR
Remark: another data set of the same source
A Kd of 2700 nM was found for B5 in this work. A Kd of 950 nM was found for B7 in this work. A Kd of 6700 nM was found for B8 in this work.

What follows are binders tested against A*02:07 (assay: SPR).
A Kd of 1500 nM was found for B1 in this work. A Kd of 10000 nM was found for B2 in this work. A Kd of 1000 nM was found for B7 in this work.

Biological target: A*02:05
Test: SPR
Remark: another data set of the same source
A Kd of 2100 nM was found for B5 in this work. A Kd of 2400 nM was found for B7 in this work.

Biological target: A*02:06
Test: SPR
Remark: another data set of the same source
A Kd of 89 nM was found for B1 in this work. A Kd of 500 nM was found for B2 in this work. A Kd of 330 nM was found for B3 in this work. A Kd of 570 nM was found for B4 in this work. A Kd of 570 nM was found for B5 in this work. A Kd of 5100 nM was found for B6 in this work. A Kd of 69 nM was found for B7 in this work. A Kd of 320 nM was found for B8 in this work.

Each binder was assayed against AFP158 loaded T2 cells (human;, UniProt P61769 21-119) (assay: flow cytometry).
An EC50 of 1.15 nM was found for B9 in this work. An EC50 of 3.63 nM was found for B14 in this work. An EC50 of 413 nM was found for B15 in this work. An EC50 of 3.76 nM was found for B16 in this work. An EC50 of 1.48 nM was found for B10 in this work. An EC50 of 6.14 nM was found for B17 in this work. An EC50 of 4.35 nM was found for B11 in this work.

Each binder was assayed against AFP158/HLA-A*02:01 complex (assay: SPR; head prints KD(1/s)).
A Kd of 100 nM was found for B16 in this work.

The binders below were run against A*02:11 (assay: SPR; low fitting confidence).
A Kd greater than 14000 nM was found for B13 in this work.

What follows are binders tested against A*02:07 (assay: SPR; low fitting confidence).
A Kd greater than 770 nM was found for B12 in this work. A Kd greater than 1200 nM was found for B13 in this work.

What follows are binders tested against A*02:02 (assay: SPR; low fitting confidence).
A Kd greater than 71000 nM was found for B13 in this work.

Biological target: A*02:11
Test: SPR; low fitting confidence
Remark: another data set of the same source
A Kd greater than 250 nM was found for B3 in this work. A Kd greater than 500 nM was found for B5 in this work. A Kd greater than 500 nM was found for B8 in this work.

These binders were tested against A*02:03 (assay: SPR; low fitting confidence).
A Kd of less than 18 nM was found for B1 in this work. A Kd of less than 10 nM was found for B2 in this work. A Kd greater than 31000 nM was found for B3 in this work. A Kd greater than 43000 nM was found for B4 in this work. A Kd greater than 2800 nM was found for B6 in this work.

Biological target: A*02:07
Test: SPR; low fitting confidence
Remark: another data set of the same source
A Kd greater than 16000 nM was found for B3 in this work. A Kd greater than 19000 nM was found for B4 in this work. A Kd greater than 17000 nM was found for B5 in this work. A Kd greater than 18000 nM was found for B6 in this work. A Kd greater than 9100 nM was found for B8 in this work.

Biological target: A*02:02
Test: SPR; low fitting confidence
Remark: another data set of the same source
A Kd greater than 3100 nM was found for B1 in this work. A Kd greater than 1400 nM was found for B2 in this work. A Kd greater than 530 nM was found for B3 in this work. A Kd greater than 910 nM was found for B4 in this work. A Kd greater than 3200 nM was found for B5 in this work. A Kd greater than 1500 nM was found for B6 in this work. A Kd greater than 4500 nM was found for B7 in this work. A Kd greater than 3700 nM was found for B8 in this work.

The binders below were run against A*02:05 (assay: SPR; low fitting confidence).
A Kd greater than 1400 nM was found for B1 in this work. A Kd greater than 1100 nM was found for B3 in this work. A Kd greater than 910 nM was found for B4 in this work. A Kd greater than 2000 nM was found for B8 in this work.

From patent US20240279318A1 (published 2024)
